{"source": "patent US20210284711A1", "about": "(KAHR MEDICAL, published 2021)", "target": "T1, human PDL1 (overexpressed on DLD1-PDL1 cells) (human, UniProt Q9NZQ7 19-290)", "T1 construct": "whole, on cells; also called B7H1; CD274", "T1 sequence (Q9NZQ7 19-290)": "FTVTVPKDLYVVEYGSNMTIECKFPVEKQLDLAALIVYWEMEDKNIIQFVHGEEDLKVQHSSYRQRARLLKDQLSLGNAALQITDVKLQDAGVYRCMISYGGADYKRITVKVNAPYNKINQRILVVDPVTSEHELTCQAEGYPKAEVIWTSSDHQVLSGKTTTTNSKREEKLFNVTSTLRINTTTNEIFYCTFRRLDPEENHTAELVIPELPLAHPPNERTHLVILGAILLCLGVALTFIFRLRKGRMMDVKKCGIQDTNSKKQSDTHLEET", "experiment": "flow cytometry on DLD1-PDL1 cells, GMFI plotted against DSP105 conc. [ug/ml] (two-fold steps)", "source_text": "Following, GMFI values were used to create a binding curve graph with a GraphPad Prism software (FIG. 10C). Taken together, both sides of the His-tagged DSP105_V17 (SEQ ID NO: 97), fusion protein, bind their relevant counterparts overexpressed on the surface of cells.", "data": [{"binder": "N-terminal His-tagged DSP105_V17 (PD1-4-1BBL variant fusion protein) (other, also called N-terminal His-tagged DSP105_var17) HHHHHHDSPDRPWNPPTFSPALLVVTEGDNATFTCSFSNTSESFVLNWYRMSPSNQTDKLAAFPEDRSQPGQDSRFRVTQLPNGRDFHMSVVRARRNDSGTYLCGAISLAPKAQIKESLRAELRVTERRAEVPTAHPSPSPRPAGQGSAASPRLREGPELSPDDPAGLLDLRQGMFAQLVAQNVLLIDGPLSWYSDPGLAGVSLTGGLSYKEDTKELVVAKAGVYYVFFQLELRRVVAGEGSGSVSLALHLQPLRSAAGAAALALTVDLPPASSEARNSAFGFQGRLLHLSAGQRLGVHLHTEARARHAWQLTQGATVLGLFRVTPEIPAGLPSPRSE", "values": [{"measurement": "EC50 (read off the curve)", "result": "~0.9", "unit": "µg/mL"}]}]}
